Assay results reported in paper PMC2756588.

Assays:
Assay in all cases: SPOT array
[1] = biological target: T1, Abp1, P15891; details: median of control spots 935
T1 sequence (P15891 535-592, looked up): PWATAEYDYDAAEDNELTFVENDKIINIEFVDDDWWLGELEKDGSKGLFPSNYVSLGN

[2] = biological target: T2, Bbc1, P47068; details: median of control spots 796
T2 sequence (P47068 1-78, looked up): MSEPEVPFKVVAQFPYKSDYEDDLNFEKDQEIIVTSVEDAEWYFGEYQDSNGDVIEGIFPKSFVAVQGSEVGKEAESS

[3] = biological target: Bem1-1, P29366; details: median of control spots 4282
Chain of Bem1-1, P29366 (P29366 55-141): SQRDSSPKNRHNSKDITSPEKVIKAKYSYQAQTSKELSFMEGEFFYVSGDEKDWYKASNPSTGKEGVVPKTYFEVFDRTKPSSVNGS

[4] = biological target: Bem1-2, P29366; details: median of control spots 4347
Chain of Bem1-2, P29366 (P29366 139-227): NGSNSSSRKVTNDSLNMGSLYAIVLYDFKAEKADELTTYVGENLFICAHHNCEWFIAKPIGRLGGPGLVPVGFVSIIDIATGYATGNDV

[5] = biological target: T3, Boi1, P38041; details: median of control spots 1162
T3 sequence (P38041 1-86, looked up): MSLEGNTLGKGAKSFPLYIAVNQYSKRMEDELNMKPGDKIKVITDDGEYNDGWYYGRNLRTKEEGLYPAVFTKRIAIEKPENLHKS

[6] = biological target: T4, Boi2, P39969; details: median of control spots 1161
T4 sequence (P39969 32-116, looked up): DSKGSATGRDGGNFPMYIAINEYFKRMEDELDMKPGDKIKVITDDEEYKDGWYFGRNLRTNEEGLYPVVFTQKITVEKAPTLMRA

[7] = biological target: T5, Bud14, P27637; details: median of control spots 956
T5 sequence (P27637 247-328, looked up): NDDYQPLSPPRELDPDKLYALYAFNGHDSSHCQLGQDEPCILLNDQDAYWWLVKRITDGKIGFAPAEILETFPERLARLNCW

[8] = biological target: T6, Bzz1-1, P38822; details: median of control spots 4446
T6 sequence (P38822 478-572, looked up): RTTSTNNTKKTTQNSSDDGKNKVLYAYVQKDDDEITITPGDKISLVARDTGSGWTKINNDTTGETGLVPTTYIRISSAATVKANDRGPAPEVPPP

[9] = biological target: T7, Bzz1-2, P38822; details: median of control spots 4538
T7 sequence (P38822 568-633, looked up): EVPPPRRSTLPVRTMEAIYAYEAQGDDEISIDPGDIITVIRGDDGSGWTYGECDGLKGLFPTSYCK

[10] = biological target: T8, Cdc25, P04821; details: median of control spots 969
T8 sequence (P04821 50-136, looked up): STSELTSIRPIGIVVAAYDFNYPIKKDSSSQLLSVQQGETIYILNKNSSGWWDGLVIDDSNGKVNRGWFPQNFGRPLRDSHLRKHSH

[11] = biological target: T9, Cyk3, Q07533; details: median of control spots 1451
T9 sequence (Q07533 1-83, looked up): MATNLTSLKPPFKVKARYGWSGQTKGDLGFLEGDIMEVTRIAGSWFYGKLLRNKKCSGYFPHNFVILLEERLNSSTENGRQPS

[12] = biological target: T10, Fus1, P11710; details: median of control spots 1200
T10 sequence (P11710 432-512, looked up): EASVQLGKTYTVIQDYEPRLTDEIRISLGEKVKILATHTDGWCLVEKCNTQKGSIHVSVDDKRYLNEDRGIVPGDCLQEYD

[13] = biological target: GST; details: median of control spots 978
[14] = biological target: T11, Hof1, Q05080; details: median of control spots 4086
T11 sequence (Q05080 590-669, looked up): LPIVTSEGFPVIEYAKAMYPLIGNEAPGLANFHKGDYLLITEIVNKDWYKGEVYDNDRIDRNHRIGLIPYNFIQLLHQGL

[15] = biological target: T12, Hse1, P38753; details: median of control spots 1727
T12 sequence (P38753 208-285, looked up): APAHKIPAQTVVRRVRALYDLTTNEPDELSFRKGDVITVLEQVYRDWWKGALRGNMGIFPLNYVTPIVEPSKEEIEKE

[16] = biological target: T13, Lsb1, P53281; details: median of control spots 388
T13 sequence (P53281 45-122, looked up): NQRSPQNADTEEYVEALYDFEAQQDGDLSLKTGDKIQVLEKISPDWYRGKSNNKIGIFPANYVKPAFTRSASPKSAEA

[17] = biological target: T14, Lsb3, P43603; details: median of control spots 406
T14 sequence (P43603 385-451, looked up): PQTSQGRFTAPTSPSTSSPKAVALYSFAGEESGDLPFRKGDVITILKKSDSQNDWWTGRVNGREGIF

[18] = biological target: T15, Lsb4, P32793; details: median of control spots 397
T15 sequence (P32793 402-468, looked up): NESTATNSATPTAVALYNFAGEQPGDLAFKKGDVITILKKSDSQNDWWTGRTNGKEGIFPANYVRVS

[19] = biological target: Myo3, P36006; details: median of control spots 468
[20] = biological target: T16, Myo5, Q04439; details: median of control spots 471
T16 sequence (Q04439 1072-1160, looked up): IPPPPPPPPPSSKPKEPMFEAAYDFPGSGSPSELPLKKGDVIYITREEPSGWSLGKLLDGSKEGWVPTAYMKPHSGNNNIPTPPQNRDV

[21] = biological target: T17, Nbp2, Q12163; details: median of control spots 357
T17 sequence (Q12163 103-180, looked up): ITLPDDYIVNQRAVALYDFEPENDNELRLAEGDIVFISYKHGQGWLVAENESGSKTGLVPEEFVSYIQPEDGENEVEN

[22] = biological target: T18, Pex13, P80667; details: median of control spots 1341
T18 sequence (P80667 295-386, looked up): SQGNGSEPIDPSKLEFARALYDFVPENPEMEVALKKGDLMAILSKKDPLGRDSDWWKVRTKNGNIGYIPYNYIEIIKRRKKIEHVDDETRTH

[23] = biological target: T19, Pin3, Q06449; details: median of control spots 2171
T19 sequence (Q06449 53-122, looked up): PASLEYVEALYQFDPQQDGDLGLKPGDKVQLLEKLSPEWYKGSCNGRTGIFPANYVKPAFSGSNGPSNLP

[24] = biological target: Rvs167, P39743; details: median of control spots 2707
Chain of Rvs167, P39743 (P39743 419-482): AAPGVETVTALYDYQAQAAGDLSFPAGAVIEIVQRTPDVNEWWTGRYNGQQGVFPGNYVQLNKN

[25] = biological target: Sho1, P40073; details: median of control spots 1148
Chain of Sho1, P40073 (P40073 287-367): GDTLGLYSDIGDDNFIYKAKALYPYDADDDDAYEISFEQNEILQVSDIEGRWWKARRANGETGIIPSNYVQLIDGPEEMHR

[26] = biological target: T20, Sla1-2, P32790; details: median of control spots 712
T20 sequence (P32790 60-140, looked up): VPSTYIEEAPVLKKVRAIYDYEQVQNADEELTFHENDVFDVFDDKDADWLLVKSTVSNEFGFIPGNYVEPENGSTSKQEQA

[27] = biological target: T21, Sla1-3, P32790; details: median of control spots 5475
T21 sequence (P32790 344-424, looked up): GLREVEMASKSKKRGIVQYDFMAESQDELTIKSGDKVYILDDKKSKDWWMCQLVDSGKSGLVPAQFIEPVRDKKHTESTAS

TKHKAPPPPPPTAET
SPOT intensity [1]: 0
SPOT intensity [2]: 0
SPOT intensity [3]: 3
SPOT intensity [4]: 0
SPOT intensity [5]: 0
SPOT intensity [6]: 1
SPOT intensity [7]: 0
SPOT intensity [8]: 762
SPOT intensity [9]: 190
SPOT intensity [10]: 0
SPOT intensity [11]: 0
SPOT intensity [12]: 0
SPOT intensity [13]: 0
SPOT intensity [14]: 1
SPOT intensity [15]: 0
SPOT intensity [16]: 0
SPOT intensity [17]: 1
SPOT intensity [18]: 0
SPOT intensity [19]: 0
SPOT intensity [20]: 1
SPOT intensity [21]: 0
SPOT intensity [22]: 0
SPOT intensity [23]: 0
SPOT intensity [24]: 0
SPOT intensity [25]: 0
SPOT intensity [26]: 1
SPOT intensity [27]: 0

PAPPPPPRASRPTPN
SPOT intensity [1]: 0
SPOT intensity [2]: 0
SPOT intensity [3]: 0
SPOT intensity [4]: 0
SPOT intensity [5]: 1
SPOT intensity [6]: 0
SPOT intensity [7]: 6
SPOT intensity [8]: 7
SPOT intensity [9]: 0
SPOT intensity [10]: 0
SPOT intensity [11]: 1
SPOT intensity [12]: 1
SPOT intensity [13]: 1
SPOT intensity [14]: 0
SPOT intensity [15]: 0
SPOT intensity [16]: 0
SPOT intensity [17]: 0
SPOT intensity [18]: 0
SPOT intensity [19]: 0
SPOT intensity [20]: 1
SPOT intensity [21]: 0
SPOT intensity [22]: 56
SPOT intensity [23]: 6
SPOT intensity [24]: 514
SPOT intensity [25]: 0
SPOT intensity [26]: 2
SPOT intensity [27]: 0

RRGPAPPPPPRASRP
SPOT intensity [1]: 0
SPOT intensity [2]: 0
SPOT intensity [3]: 3
SPOT intensity [4]: 11
SPOT intensity [5]: 0
SPOT intensity [6]: 0
SPOT intensity [7]: 8
SPOT intensity [8]: 45
SPOT intensity [9]: 27
SPOT intensity [10]: 0
SPOT intensity [11]: 0
SPOT intensity [12]: 0
SPOT intensity [13]: 1
SPOT intensity [14]: 2
SPOT intensity [15]: 10
SPOT intensity [16]: 0
SPOT intensity [17]: 0
SPOT intensity [18]: 1
SPOT intensity [19]: 0
SPOT intensity [20]: 0
SPOT intensity [21]: 0
SPOT intensity [22]: 17
SPOT intensity [23]: 17
SPOT intensity [24]: 3340
SPOT intensity [25]: 0
SPOT intensity [26]: 0
SPOT intensity [27]: 14

LYEAMPPTLPHRDWK
SPOT intensity [1]: 0
SPOT intensity [2]: 0
SPOT intensity [3]: 0
SPOT intensity [4]: 1
SPOT intensity [5]: 0
SPOT intensity [6]: 2
SPOT intensity [7]: 0
SPOT intensity [8]: 0
SPOT intensity [9]: 2
SPOT intensity [10]: 0
SPOT intensity [11]: 0
SPOT intensity [12]: 0
SPOT intensity [13]: 0
SPOT intensity [14]: 3
SPOT intensity [15]: 2
SPOT intensity [16]: 0
SPOT intensity [17]: 0
SPOT intensity [18]: 1
SPOT intensity [19]: 0
SPOT intensity [20]: 1
SPOT intensity [21]: 0
SPOT intensity [22]: 59
SPOT intensity [23]: 19
SPOT intensity [24]: 151
SPOT intensity [25]: 0
SPOT intensity [26]: 1
SPOT intensity [27]: 0
